In US11505811B2, “Method for the preparation of 2,4-dihydroxybutyrate” (ADISSEO FRANCE S.A.S., priority 2012, dated 2022):
Substitutions are numbered along the chain they refer to. Numbers in names are those of the source.

How the values were obtained:
Details in all cases: other: pH 7, 37° C., 0.25 mM NADH
[1] = substrate: O=C(O)CC(=O)C(=O)O; assay: OHB/oxaloacetate reductase assay (NADH oxidation at 340 nm), Ec-Mdh wild type; type: biochemical, Escherichia coli
From the text: (§1) The genes coding for (L)-malate dehydrogenase in Escherichia coli, Ec-mdh (SEQ ID NO: 1), (D)-lactate dehydrogenase in E. coli, Ec-ldhA (SEQ ID NO: 3), (L)-lactate dehydrogenase of Lactococcus lactis, Ll-ldhA (SEQ ID NO: 5), (L)-lactate dehydrogenase of Bacillus subtilis, Bs-ldh (SEQ ID NO: 7), (L)-lactate dehydrogenase of Geobacillus stearothermophilus, Gs-ldh (SEQ ID NO: 9), the two isoforms of the (L)-lactate dehydrogenase of Oryctalagus cuniculus, Oc-ldhA (SEQ ID NO: 11 and SEQ ID NO: 13), were amplified by PCR using the high-fidelity polymerase Phusion™ (Fermentas) and the primers listed in Table 1. Genomic DNAs of E. coli MG1655, L. lactis IL1403, and B. subtilis strain 168 were used as the template. The genes Oc-ldhA, and Gs-ldh were codon-optimized for expression in E. coli and synthesized by MWG Eurofins. The primers introduced restriction sites (Table 1) upstream of the start codon and downstream of the stop codon, respectively, facilitating the ligation of the digested PCR products into the corresponding sites of the pET28a+ (Novagen) expression vector using T4 DNA ligase (Fermentas). Ligation products were transformed into E. coli DH5a cells (NEB). […]

[2] = substrate: O=C(O)C(=O)CCO; assay: OHB/oxaloacetate reductase assay, Ec-Mdh R81A M85Q I12V; type: biochemical, Escherichia coli
Method: (§2) Enzymatic assays: The reaction mixture contained 60 mM Hepes (pH 7), 50 mM potassium chloride, 5 mM MgCl2, 0.25 mM NADH, (optionally 5 mM fructose-1,6-bisphosphate) (all products from Sigma), and appropriate amounts of purified malate or lactate dehydrogenase or cell extract. Reactions were started by adding appropriate amounts of 2-oxo-4-hydroxybutyrate (OHB), pyruvate, or oxaloacetate (OAA). Enzymatic assays were carried out at 37° C. in 96-well flat bottomed microtiter plates in a final volume of 250 μL. The reactions were followed by the characteristic absorption of NADH at 340 nm (εNADH=6.22 mM^−1 cm^−1) in a microplate reader (BioRad 680XR).
Site-directed mutagenesis of the mdh gene from E. coli was carried out as described in Example 2 using the primers listed in Table 5. Plasmid pET28-Ec-mdh was used as the template.
Mutant enzymes were expressed, purified and tested for OHB and oxaloacetate reductase activity as described in Example 1. […] The mutation R81A in Ec-Mdh was combined with additional changes in the protein sequence.

[3] = substrate: O=C(O)C(=O)CCO; assay: OHB/pyruvate reductase assay, Ec-LdhA; type: biochemical, Escherichia coli
From the text: as §1

[4] = substrate: CC(=O)C(=O)O; assay: OHB/pyruvate reductase assay, Ec-LdhA; type: biochemical, Escherichia coli
From the text: as §1

[5] = substrate: O=C(O)C(=O)CCO; assay: OHB/pyruvate reductase assay, Gs-Ldh; type: biochemical, Geobacillus stearothermophilus
From the text: as §1

[6] = substrate: CC(=O)C(=O)O; assay: OHB/pyruvate reductase assay, Gs-Ldh; type: biochemical, Geobacillus stearothermophilus
From the text: as §1

[7] = substrate: CC(=O)C(=O)O; assay: OHB/pyruvate reductase assay, Ll-Ldh wild type; type: biochemical, Lactococcus lactis
From the text: as §1

[8] = substrate: O=C(O)C(=O)CCO; assay: OHB/pyruvate reductase assay, Ll-LdhA Q85N I226V; type: biochemical, Lactococcus lactis
Method: as §2
(§3) Site-directed mutagenesis of the L. lactis ldhA gene was carried out using the pET28-Ll-ldhA plasmid as the template. Point mutations to change the amino acid sequence were introduced by PCR (Phusion 1U, HF buffer 20% (v/v), dNTPs 0.2 mM, direct and reverse primers 0.04 μM each, template plasmid 30-50 ng, water) using the oligonucleotide pairs listed in Table 3. The genes mutated by PCR contained a new restriction site listed in Table 3 (introduced using silent mutations) in addition to the functional mutation to facilitate identification of mutated clones. The PCR products were digested by DpnI at 37° C. for 1 h to remove template DNA, and transformed into competent E. coli DH5α (NEB) cells. […]

[9] = substrate: CC(=O)C(=O)O; assay: OHB/pyruvate reductase assay, Ll-LdhA Q85N I226V; type: biochemical, Lactococcus lactis
Method: as §2, §3

[10] = substrate: O=C(O)C(=O)CCO; assay: OHB/pyruvate reductase assay, Ll-LdhA Q85N; type: biochemical, Lactococcus lactis
Method: as §2, §3

[11] = substrate: CC(=O)C(=O)O; assay: OHB/pyruvate reductase assay, Ll-LdhA Q85N; type: biochemical, Lactococcus lactis
Method: as §2, §3

B1: Escherichia coli (L)-malate dehydrogenase Ec-Mdh, wild type, SEQ ID NO: 2 (Escherichia coli K-12) (protein)
chain: MKVAVLGAAGGIGQALALLLKTQLPSGSELSLYDIAPVTPGVAVDLSHIPTAVKIKGFSGEDATPALEGADVVLISAGVARKPGMDRSDLFNVNAGIVKNLVQQVAKTCPKACIGIITNPVNTTVAIAAEVLKKAGVYDKNKLFGVTTLDIIRSNTFVAELKGKQPGEVEVPVIGGHSGVTILPLLSQVPGVSFTEQEVADLTKRIQNAGTEVVEAKAGGGSATLSMGQAAARFGLSLVRALQGEQGVVECAYVEGDGQYARFFSQPLLLGKNGVEERKSIGTLSAFEQNALEGMLDTLKKDIALGEEFVNK
notes: made in house; host or cells: E. coli BL21 (DE3) star
Q: Which Km [1] does the source give for B1 here?
A: 40 µM

B2: Escherichia coli malate dehydrogenase Ec-Mdh variant R81A M85Q I12V, SEQ ID No. 108 (Escherichia coli K-12; I12V/M85Q/R81A) (protein)
chain: B1 chain with I12V, R81A, M85Q
Q: For B2, which Km [2] is on record?
A: 15000 µM

B3: Escherichia coli (D)-lactate dehydrogenase Ec-LdhA, SEQ ID NO: 4 (Escherichia coli K-12) (protein)
chain: MKLAVYSTKQYDKKYLQQVNESFGFELEFFDFLLTEKTAKTANGCEAVCIFVNDDGSRPVLEELKKHGVKYIALRCAGFNNVDLDAAKELGLKVVRVPAYDPEAVAEHAIGMMMTLNRRIHRAYQRTRDANFSLEGLTGFTMYGKTAGVIGTGKIGVAMLRILKGFGMRLLAFDPYPSAAALELGVEYVDLPTLFSESDVISLHCPLTPENYHLLNEAAFEQMKNGVMIVNTSRGALIDSQAAIEALKNQKIGSLGMDVYENERDLFFEDKSNDVIQDDVFRRLSACHNVLFTGHQAFLTAEALTSISQTTLQNLSNLEKGETCPNELV
notes: as for B1
Q: With B3 as the protein, how does the Km [3] read?
A: 4800 µM

Q: What about the Km [4] of the same protein?
A: 1800 µM

B4: Geobacillus stearothermophilus (L)-lactate dehydrogenase Gs-Ldh, SEQ ID NO: 10 (Geobacillus stearothermophilus) (protein)
chain: MKNNGGARVVVIGAGFVGASYVFALMNQGIADEIVLIDANESKAIGDAMDFNHGKVFAPKPVDIWHGDYDDCRDADLVVICAGANQKPGETRLDLVDKNIAIFRSIVESVMASGFQGLFLVATNPVDILTYATWKFSGLPHERVIGSGTILDTARFRFLLGEYFSVAPQNVHAYIIGEHGDTELPVWSQAYIGVMPIRKLVESKGEEAQKDLERIFVNVRDAAYQIIEKKGATYYGIAMGLARVTRAILHNENAILTVSAYLDGLYGERDVYIGVPAVINRNGIREVIEIELNDDEKNRFHHSAATLKSVLARAFTR
notes: as for B1
Q: Which Km [5] does the source give for B4 here?
A: 1300 µM

Q: What about the Km [6] of the same protein?
A: 1200 µM

B5: Lactococcus lactis (L)-lactate dehydrogenase Ll-LdhA (Ll-Ldh), wild type, SEQ ID NO: 6 (Lactococcus lactis subsp. lactis Il1403) (protein)
chain: MADKQRKKVILVGDGAVGSSYAFALVNQGIAQELGIVDLFKEKTQGDAEDLSHALAFTSPKKIYSADYSDASDADLVVLTSGAPQKPGETRLDLVEKNLRITKDVVTKIVASGFKGIFLVAANPVDILTYATWKFSGFPKNRVVGSGTSLDTARFRQALAEKVDVDARSIHAYIMGEHGDSEFAVWSHANVAGVKLEQWFQENDYLNEAEIVELFESVRDAAYSIIAKKGATFYGVAVALARITKAILDDEHAVLPVSVFQDGQYGVSDCYLGQPAVVGAEGVVNPIHIPLNDAEMQKMEASGAQLKAIIDEAFAKEEFASAVKN
Q: For B5, which Km [7] is on record?
A: 2700 µM

B6: Lactococcus lactis (L)-lactate dehydrogenase A Ll-LdhA variant Q85N I226V (Q85NI226V), SEQ ID No. 32 (Lactococcus lactis subsp. lactis Il1403; I226V/Q85N) (protein)
chain: B5 chain with Q85N, I226V
Q: With B6 as the protein, how does the Km [8] read?
A: 3300 µM

Q: And the Km [9]?
A: 1400 µM

B7: Lactococcus lactis (L)-lactate dehydrogenase A Ll-LdhA variant Q85N, SEQ ID No. 30 (Lactococcus lactis subsp. lactis Il1403; Q85N) (protein)
chain: B5 chain with Q85N
Q: With B7 as the protein, how does the Km [10] read?
A: 29200 µM

Q: And the Km [11]?
A: 22100 µM
